Experimental data reported in publication PMC5080453 (2016).

Target: BMPER_N (Homo sapiens (Human), UniProt Q8N8U9)
Experiment: SPR (Tsg on chip); one cell MST

BMPER_N, sequence (Q8N8U9 40-369): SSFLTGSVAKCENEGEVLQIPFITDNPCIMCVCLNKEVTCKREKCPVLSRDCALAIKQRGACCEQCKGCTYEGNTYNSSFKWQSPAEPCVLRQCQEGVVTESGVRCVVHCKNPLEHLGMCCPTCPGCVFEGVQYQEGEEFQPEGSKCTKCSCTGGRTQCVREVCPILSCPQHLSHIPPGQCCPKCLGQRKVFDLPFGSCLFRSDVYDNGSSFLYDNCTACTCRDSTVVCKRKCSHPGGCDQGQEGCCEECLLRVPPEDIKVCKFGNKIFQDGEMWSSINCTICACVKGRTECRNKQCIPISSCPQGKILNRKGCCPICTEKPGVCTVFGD

Kd: 0.55 nM
B1: TWSG1 (protein)
chain: CNKALCASDVSKCLIQELCQCRPGEGNCSCCKECMLCLGALWDECCDCVGMCNPRNYSDTPPTSKSTVEELHEPIPSLFRALTEGDTQLNWNIVSFPVAEELSHHENLVSFLETVNQPHHQNVSVPSNNVHAPYSSDKEHMCTVVYFDDCMSIHQCKISCESMGASKYRWFHNACCECIGPECIDYGSKTVKCMNCMF
